The numbers were not newly measured in article PMC9601870, which cites them from elsewhere.

The data set addresses Cys32 (UniProt position 33, FWAEWCGPCKM). Conditions: not stated (thiol ionisation implies the reduced dithiol form; inferred).

Consider Thioredoxin 1 (Trx) (Escherichia coli), for which the pKa was 7.1–7.4.
